In patent publication US20250319129A1:
Like-named read-outs stand apart in the source and are kept apart here. Blank lines part the entries; values can stand above or below the binder they belong to.

Assays:
Assay in all cases: cell-based or functional assay
CLDN18.2 (human), P56856 [1] = target: CLDN18.2 (human), P56856
CLDN18.2 (human), P56856 [2] = target: CLDN18.2 (human), P56856; remark: listed apart in the source
CLDN18.1 (human) = CLDN18.1 (human) (UniProt P56856)

IFN-γ secretion levels (CLDN18.2 (human), P56856 [1]): > 5000 pg/mL
IFN-γ secretion levels (CLDN18.2 (human), P56856 [2]): > 10000 pg/mL
B1: 21047 chimeric antigen receptor (on CAR-T cells) (protein)
chain: QVQLVESGGGLVQPGGSLRLSCAASGSIFNIPVMGWYRQAPGKQRELVAGISTGGTTNYGDSVKGRFTISRDNAKNTVYLQMNSLKPEDTAVYYCNVLVVSGIGSTLEVWGQGTLVTVSSIEVMYPPPYLDNEKSNGTIIHVKGKHLCPSPLFPGPSKPFWVLVVVGGVLACYSLLVTVAFIIFWVRSKRSRLLHSDYMNMTPRRPGPTRKHYQPYAPPRDFAAYRSRVKFSRSADAPAYQQGQNQLYNELNLGRREEYDVLDKRRGRDPEMGGKPRRKNPQEGLYNELQKDKMAEAYSEIGMKGERRRGKGHDGLYQGLSTATKDTYDALHMQALPPR

cytokine secretion (IFN-γ) (CLDN18.1 (human)): < 100 µg/mL
B2: 21009 chimeric antigen receptor (on CAR-T cells) (protein, part only; not given: hinge, transmembrane and signalling parts, part only)
chain, part: EVQVVESGGGLVQPGGSLRLSCAASGNIFRTDIGMWYRQAPGKGRELVAGTTTGRSGYVDKASIGRFTISRDNAKNTMYLQMNSLRAEDTAVYYCNAYGVWEQTPFDALRWGQGTLVTVSS

cytokine secretion (IFN-γ) (CLDN18.1 (human)): < 100 µg/mL
B3: 21050 chimeric antigen receptor (on CAR-T cells) (protein, part only; not given: hinge, transmembrane and signalling parts, part only)
chain, part: QVQLQQPGAELVRPGASVKLSCKASGYTFTSYWINWVKQRPGQGLEWIGNIYPSDSYTNYNQKFKDKATLTVDKSSSTAYMQLSSPTSEDSAVYYCTRSWRGNSFDYWGQGTTLTVSSGGGGSGGGGSGGGGSDIVMTQSPSSLTVTAGEKVTMSCKSSQSLLNSGNQKNYLTWYQQKPGQPPKLLIYWASTRESGVPDRFTGSGSGTDFTLTISSVQAEDLAVYYCQNDYSYPFTFGSGTKLEIK

cytokine secretion (IFN-γ) (CLDN18.1 (human)): < 100 µg/mL
B4: 21011 chimeric antigen receptor (on CAR-T cells) (protein, part only; not given: hinge, transmembrane and signalling parts, part only)
chain, part: EVQLVESGGGLVQPGGSLRLSCAASGSIFSVNGIMWYRQAPGKQRELVAARYTGSVIDSGKTGTGRFTISRDNAKNTLYLQMNSLRAEDTAVYYCNAPTAALTRVEWDVYSLWGQGTLVTVSS
